Results taken from patent US20240368617A1, “NPR1 VARIANT TO ENHANCE PLANT RESISTANCE TO BIOTIC AND ABIOTIC STRESSES AND METHOD THEREOF” (Duke University, published 2024).
One block for each binder: values may come before it.

Experiments:
[1] = molecular target: T1, npr1(L284D)-HA (Arabidopsis thaliana, UniProt P93002 1-593); assay: co-immunoprecipitation after transient co-expression in N. benthamiana
T1 construct: not shown: C-terminal HA tag from vector pLN462
T1 sequence: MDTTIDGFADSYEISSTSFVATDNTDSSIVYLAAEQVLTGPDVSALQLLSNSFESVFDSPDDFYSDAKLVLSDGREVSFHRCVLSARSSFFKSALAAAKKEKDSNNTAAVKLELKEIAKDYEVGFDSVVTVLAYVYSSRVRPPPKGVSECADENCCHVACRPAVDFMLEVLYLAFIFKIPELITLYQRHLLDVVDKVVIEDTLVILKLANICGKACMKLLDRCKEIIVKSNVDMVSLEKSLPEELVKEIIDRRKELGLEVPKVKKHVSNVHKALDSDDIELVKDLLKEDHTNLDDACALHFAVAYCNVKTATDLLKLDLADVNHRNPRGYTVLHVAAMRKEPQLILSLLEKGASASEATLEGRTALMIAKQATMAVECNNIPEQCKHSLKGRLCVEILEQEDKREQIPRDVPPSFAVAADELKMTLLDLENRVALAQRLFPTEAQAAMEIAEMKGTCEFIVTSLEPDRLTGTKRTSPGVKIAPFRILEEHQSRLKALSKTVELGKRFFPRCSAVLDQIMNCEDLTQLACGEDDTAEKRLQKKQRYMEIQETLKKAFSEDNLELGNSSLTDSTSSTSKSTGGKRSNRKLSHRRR
Description: (§1) For plant transformations, the Agrobacterium tumefaciens strain GV3101 was transformed with plant binary vectors carrying the indicated transgenes. For stable expression in Arabidopsis, a floral dipping method was used. For transient expression in N. benthamiana, the Agrobacterium carrying the indicated construct was cultured over-night at 28° C. in LB broth medium supplemented with appropriate antibiotics: spectinomycin (100 μg ml-1), kanamycin (50 μg ml-1), gentamycin (50 μg ml-1) and rifampicin (25 μg ml-1). The obtained culture was re-inoculated at 1:10 into fresh growth medium with antibiotics and grown for another 4 h. Cells were then centrifuged at 1,600g for 10 min, and inoculum was prepared by resuspending cells to an OD600 of 1 in double-distilled water containing 200 μM acetosyringone (Sigma-Aldrich). The co-expression assays were per-formed with a 1:1 mixture of Agrobacteria inoculums. The inoculum was pressure-infiltrated into N. benthamiana leaves at the abaxial side using 1 ml syringe without the needle.
(§2) Recombinant protein analysis, co-immunoprecipitation and cell-free oligomerization were performed using total protein extracts from the transient expression assay in N. benthamiana as described previously. Interaction analysis of NPR1-HA with TGA3-mRFP or NPR1-GFP (self-interaction), was performed in vivo by transiently co-expressing the two proteins in N. benthamiana followed by treatment with water (mock) or 1 mM SA for 5 h. Total protein was extracted and used for co-immunoprecipitation with anti-RFP or anti-HA beads, respectively. In the NPR1-HA/TGA3-mRFP interaction experiments the npr1-1-HA was used as a negative control. Interaction between GST-NPR1 and Myc-CUL3A was performed by co-expression in E. coli as described. For western blotting under reducing conditions, the SDS sample buffer was added to the protein extracts from a 4× stock solution supplemented with 50 mM DTT and 715 mM B-mercaptoethanol. For western blotting under non-reducing conditions, a DDT-and B-mercaptoethanol-free SDS sample buffer was used. […]

[2] = molecular target: T2, npr1(A151P/D152R)-HA (Arabidopsis thaliana, UniProt P93002 1-593); assay: as above
T2 construct: not shown: C-terminal HA tag from vector pLN462
T2 sequence: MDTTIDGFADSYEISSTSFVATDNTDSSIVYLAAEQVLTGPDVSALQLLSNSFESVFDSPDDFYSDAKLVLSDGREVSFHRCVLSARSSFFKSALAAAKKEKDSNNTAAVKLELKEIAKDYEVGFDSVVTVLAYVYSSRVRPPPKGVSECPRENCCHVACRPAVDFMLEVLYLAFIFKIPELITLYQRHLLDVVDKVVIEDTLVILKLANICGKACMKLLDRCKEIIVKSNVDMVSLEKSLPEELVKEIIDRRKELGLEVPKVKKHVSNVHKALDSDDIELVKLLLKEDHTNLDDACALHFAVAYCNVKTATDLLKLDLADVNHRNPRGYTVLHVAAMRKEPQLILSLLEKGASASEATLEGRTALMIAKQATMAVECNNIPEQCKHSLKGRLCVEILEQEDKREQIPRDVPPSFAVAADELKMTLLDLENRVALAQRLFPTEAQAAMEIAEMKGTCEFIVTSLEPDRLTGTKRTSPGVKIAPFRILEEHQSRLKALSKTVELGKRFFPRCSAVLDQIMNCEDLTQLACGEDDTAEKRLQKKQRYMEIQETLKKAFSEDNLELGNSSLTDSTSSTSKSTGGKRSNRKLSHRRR
Description: as §1, §2

[3] = molecular target: T3, npr1(L281D)-HA (Arabidopsis thaliana, UniProt P93002 1-593); assay: as above
T3 construct: not shown: C-terminal HA tag from vector pLN462
T3 sequence: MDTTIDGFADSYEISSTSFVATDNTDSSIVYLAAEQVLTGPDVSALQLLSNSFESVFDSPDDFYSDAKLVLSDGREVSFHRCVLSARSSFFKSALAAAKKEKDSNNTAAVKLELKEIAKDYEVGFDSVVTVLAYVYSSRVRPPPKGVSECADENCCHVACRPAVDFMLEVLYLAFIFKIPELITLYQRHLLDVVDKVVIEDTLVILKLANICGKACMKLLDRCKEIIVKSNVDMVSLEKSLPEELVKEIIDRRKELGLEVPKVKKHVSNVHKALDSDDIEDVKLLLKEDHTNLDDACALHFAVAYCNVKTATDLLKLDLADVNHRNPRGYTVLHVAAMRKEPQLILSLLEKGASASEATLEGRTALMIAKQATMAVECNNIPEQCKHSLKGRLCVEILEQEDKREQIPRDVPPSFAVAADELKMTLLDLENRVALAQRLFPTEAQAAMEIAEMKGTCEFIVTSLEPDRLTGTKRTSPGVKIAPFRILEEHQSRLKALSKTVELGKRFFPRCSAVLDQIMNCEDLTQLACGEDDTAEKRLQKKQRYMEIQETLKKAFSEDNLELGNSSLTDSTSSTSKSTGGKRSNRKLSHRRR
Description: as §1, §2

[4] = molecular target: T4, npr1(dim)-HA (Arabidopsis thaliana, UniProt P93002 1-593); assay: co-immunoprecipitation of GFP- and HA-fused proteins with anti-HA beads, N. benthamiana, with and without SA
T4 construct: also called L49D/F53D/V56D/V83K; not shown: C-terminal HA tag from vector pLN462
T4 chain: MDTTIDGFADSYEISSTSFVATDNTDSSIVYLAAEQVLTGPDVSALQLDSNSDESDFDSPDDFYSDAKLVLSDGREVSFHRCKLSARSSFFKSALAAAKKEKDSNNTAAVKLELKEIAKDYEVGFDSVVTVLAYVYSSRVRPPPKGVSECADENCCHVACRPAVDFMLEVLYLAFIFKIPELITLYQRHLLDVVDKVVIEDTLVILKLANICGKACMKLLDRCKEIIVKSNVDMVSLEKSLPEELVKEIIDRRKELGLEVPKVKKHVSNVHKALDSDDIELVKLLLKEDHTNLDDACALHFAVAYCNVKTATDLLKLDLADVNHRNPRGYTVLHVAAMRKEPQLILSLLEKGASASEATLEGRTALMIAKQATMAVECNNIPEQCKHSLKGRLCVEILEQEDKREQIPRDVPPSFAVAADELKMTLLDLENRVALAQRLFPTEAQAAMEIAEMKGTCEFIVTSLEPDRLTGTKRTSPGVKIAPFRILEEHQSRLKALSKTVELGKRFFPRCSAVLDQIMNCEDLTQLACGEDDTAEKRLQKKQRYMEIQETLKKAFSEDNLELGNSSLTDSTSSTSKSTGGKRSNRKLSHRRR
Description: as §1
Recombinant protein analysis, co-immunoprecipitation and cell-free oligomerization were performed using total protein extracts from the transient expression assay in N. benthamiana as described previously. […]

[5] = molecular target: the molecule itself; assay: size-exclusion chromatography (later elution than WT) and low-resolution cryo-EM (single-wing shape)

binding result [1]: no binding
binding result [2]: no binding
binding result [3]: no binding
B1: TGA3-mRFP (other, Arabidopsis thaliana, UniProt Q39234 1-384, looked up)
chain: MEMMSSSSSTTQVVSFRDMGMYEPFQQLSGWESPFKSDINNITSNQNNNQSSSTTLEVDARPEADDNNRVNYTSVYNNSLEAEPSSNNDQDEDRINDKMKRRLAQNREAARKSRLRKKAHVQQLEESRLKLSQLEQELVRARQQGLCVRNSSDTSYLGPAGNMNSGIAAFEMEYTHWLEEQNRRVSEIRTALQAHIGDIELKMLVDSCLNHYANLFRMKADAAKADVFFLMSGMWRTSTERFFQWIGGFRPSELLNVVMPYVEPLTDQQLLEVRNLQQSSQQAEEALSQGLDKLQQGLVESIAIQIKVVESVNHGAPMASAMENLQALESFVNQADHLRQQTLQQMSKILTTRQAARGLLALGEYFHRLRALSSLWAARPREHT
notes: Transiently co-expressed in N. benthamiana; pulled down with anti-RFP beads; also called AtTGA3; AT1G22070; not shown: C-terminal mRFP from vector pSITE-4NB

binding result [4]: no binding
B2: npr1(dim)-GFP (other)
chain: MDTTIDGFADSYEISSTSFVATDNTDSSIVYLAAEQVLTGPDVSALQLDSNSDESDFDSPDDFYSDAKLVLSDGREVSFHRCKLSARSSFFKSALAAAKKEKDSNNTAAVKLELKEIAKDYEVGFDSVVTVLAYVYSSRVRPPPKGVSECADENCCHVACRPAVDFMLEVLYLAFIFKIPELITLYQRHLLDVVDKVVIEDTLVILKLANICGKACMKLLDRCKEIIVKSNVDMVSLEKSLPEELVKEIIDRRKELGLEVPKVKKHVSNVHKALDSDDIELVKLLLKEDHTNLDDACALHFAVAYCNVKTATDLLKLDLADVNHRNPRGYTVLHVAAMRKEPQLILSLLEKGASASEATLEGRTALMIAKQATMAVECNNIPEQCKHSLKGRLCVEILEQEDKREQIPRDVPPSFAVAADELKMTLLDLENRVALAQRLFPTEAQAAMEIAEMKGTCEFIVTSLEPDRLTGTKRTSPGVKIAPFRILEEHQSRLKALSKTVELGKRFFPRCSAVLDQIMNCEDLTQLACGEDDTAEKRLQKKQRYMEIQETLKKAFSEDNLELGNSSLTDSTSSTSKSTGGKRSNRKLSHRRR
notes: also called L49D/F53D/V56D/V83K; not shown: C-terminal eGFP from vector pK7FWG2

B3: npr1(dim) mutant (L49D/F53D/V56D/V83K) with C-terminal Strep tag, expressed in insect cells (other)
chain: MDTTIDGFADSYEISSTSFVATDNTDSSIVYLAAEQVLTGPDVSALQLDSNSDESDFDSPDDFYSDAKLVLSDGREVSFHRCKLSARSSFFKSALAAAKKEKDSNNTAAVKLELKEIAKDYEVGFDSVVTVLAYVYSSRVRPPPKGVSECADENCCHVACRPAVDFMLEVLYLAFIFKIPELITLYQRHLLDVVDKVVIEDTLVILKLANICGKACMKLLDRCKEIIVKSNVDMVSLEKSLPEELVKEIIDRRKELGLEVPKVKKHVSNVHKALDSDDIELVKLLLKEDHTNLDDACALHFAVAYCNVKTATDLLKLDLADVNHRNPRGYTVLHVAAMRKEPQLILSLLEKGASASEATLEGRTALMIAKQATMAVECNNIPEQCKHSLKGRLCVEILEQEDKREQIPRDVPPSFAVAADELKMTLLDLENRVALAQRLFPTEAQAAMEIAEMKGTCEFIVTSLEPDRLTGTKRTSPGVKIAPFRILEEHQSRLKALSKTVELGKRFFPRCSAVLDQIMNCEDLTQLACGEDDTAEKRLQKKQRYMEIQETLKKAFSEDNLELGNSSLTDSTSSTSKSTGGKRSNRKLSHRRR
notes: Full-length; His10-GST removed; Monomeric by size exclusion and low-resolution cryo-EM; not shown: C-terminal Strep tag
binding result [5]: no binding
